Results reported in patent US20230220068A1 (CODIAK BIOSCIENCES, published 2023).

Target: T1, PrX (human, UniProt Q9P2B2)
T1 construct: also called PTGFRN overexpressing exosomes
T1 sequence (scaffold on exosomes, looked up): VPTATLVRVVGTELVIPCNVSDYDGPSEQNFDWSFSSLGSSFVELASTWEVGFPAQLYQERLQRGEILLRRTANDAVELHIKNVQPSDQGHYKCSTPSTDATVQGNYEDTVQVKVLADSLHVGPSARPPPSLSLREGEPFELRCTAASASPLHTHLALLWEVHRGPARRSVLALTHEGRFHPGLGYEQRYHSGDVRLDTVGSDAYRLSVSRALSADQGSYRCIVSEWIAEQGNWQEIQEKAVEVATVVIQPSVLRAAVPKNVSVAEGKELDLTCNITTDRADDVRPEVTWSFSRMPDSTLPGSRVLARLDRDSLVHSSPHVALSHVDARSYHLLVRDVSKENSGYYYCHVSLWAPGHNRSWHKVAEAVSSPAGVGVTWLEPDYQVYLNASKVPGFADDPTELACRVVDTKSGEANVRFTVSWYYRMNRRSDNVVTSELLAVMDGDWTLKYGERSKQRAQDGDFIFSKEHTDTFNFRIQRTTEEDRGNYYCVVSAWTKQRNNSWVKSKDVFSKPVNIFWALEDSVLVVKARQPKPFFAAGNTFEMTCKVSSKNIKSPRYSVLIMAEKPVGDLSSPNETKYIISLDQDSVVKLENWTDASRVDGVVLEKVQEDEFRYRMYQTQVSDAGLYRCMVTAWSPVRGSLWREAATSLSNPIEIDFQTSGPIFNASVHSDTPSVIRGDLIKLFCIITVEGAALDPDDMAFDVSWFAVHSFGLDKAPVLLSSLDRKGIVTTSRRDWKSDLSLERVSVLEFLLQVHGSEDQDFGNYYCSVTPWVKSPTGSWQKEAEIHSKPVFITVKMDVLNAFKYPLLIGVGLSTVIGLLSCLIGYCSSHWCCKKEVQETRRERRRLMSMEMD
Test: Octet, exosomes on mouse SIRPα

B1: mouse SIRPα (receptor, UniProt P97797 32-373, looked up)
chain: KELKVTQPEKSVSVAAGDSTVLNCTLTSLLPVGPIRWYRGVGPSRLLIYSFAGEYVPRIRNVSDTTKRNNMDFSIRISNVTPADAGIYYCVKFQKGSSEPDTEIQSGGGTEVYVLAKPSPPEVSGPADRGIPDQKVNFTCKSHGFSPRNITLKWFKDGQELHPLETTVNPSGKNVSYNISSTVRVVLNSMDVNSKVICEVAHITLDRSPLRGIANLSNFIRVSPTVKVTQQSPTSMNQVNLTCRAERFYPEDLQLIWLENGNVSRNDTPKNLTKNTDGTYNYTSLFLVNSSAHREDVVFTCQVKHDQQPAITRNHTVLGFAHSSDQGSMQTFPDNNATHNWN
B1: no binding.
